Laboratory results as given in PMC11130540, “Does Acinetobacter calcoaceticus glucose dehydrogenase produce self-damaging H2O2?” (Bioscience Reports, 2024).
Changes are numbered by the printed parent chain. Names may count otherwise.

B1: soluble glucose dehydrogenase (sGDH) from Acinetobacter calcoaceticus, wild-type, holo form (enzyme, UniProt P13650 25-478, looked up)
chain: DVPLTPSQFAKAKSENFDKKVILSNLNKPHALLWGPDNQIWLTERATGKILRVNPESGSVKTVFQVPEIVNDADGQNGLLGFAFHPDFKNNPYIYISGTFKNPKSTDKELPNQTIIRRYTYNKSTDTLEKPVDLLAGLPSSKDHQSGRLVIGPDQKIYYTIGDQGRNQLAYLFLPNQAQHTPTQQELNGKDYHTYMGKVLRLNLDGSIPKDNPSFNGVVSHIYTLGHRNPQGLAFTPNGKLLQSEQGPNSDDEINLIVKGGNYGWPNVAGYKDDSGYAYANYSAAANKSIKDLAQNGVKVAAGVPVTKESEWTGKNFVPPLKTLYTVQDTYNYNDPTCGEMTYICWPTVAPSSAYVYKGGKKAITGWENTLLVPSLKRGVIFRIKLDPTYSTTYDDAVPMFKSNNRYRDVIASPDGNVLYVLTDTAGNVQKDDGSVTNTLENPGSLIKFTYKAK
notes: soluble glucose dehydrogenase (sGDH) of Acinetobacter calcoaceticus, UniProt P13650; native open reading frame on plasmid pGP492; printed number + 24 in P13650; Holo enzyme with the prosthetic group PQQ (found cleaved in the crystals) and calcium ions; No tag is named; also called sGDH WT; WT
B2: soluble glucose dehydrogenase (sGDH) from Acinetobacter calcoaceticus, Y343F mutant, holo form (enzyme)
chain: B1 chain with Y343F
notes: soluble glucose dehydrogenase (sGDH) of Acinetobacter calcoaceticus, UniProt P13650, with Y343F; Holo enzyme with PQQ (found cleaved in the crystals) and calcium ions; No tag is named; also called sGDH Y343F; single mutant
B3: soluble glucose dehydrogenase (sGDH) from Acinetobacter calcoaceticus, D143E/Y343F mutant, holo form (enzyme)
chain: B1 chain with D143E, Y343F
notes: soluble glucose dehydrogenase (sGDH) of Acinetobacter calcoaceticus, UniProt P13650, with D143E and Y343F; Holo enzyme with PQQ (found cleaved in the crystals) and calcium ions; No tag is named; also called sGDH D143E/Y343F; Y343F/D143E

Target: the molecule itself
Assay: crystal structure; holo-sGDH (around 10 mg/ml) reconstituted with PQQ before crystallization; hanging drop vapor diffusion at 20°C, 20% (w/v) PEG 6000, 100 mM TRIS pH 8.0, with 2 mM zinc chloride (wild-type) or 200 mM lithium chloride (mutants); two monomers in the asymmetric unit

| Protein | stoichiometry N |
| --- | --- |
| B1 | 2 |
| B2 | 2 |
| B3 | 2 |
